Data taken from article PMC7356742.

Key:
[1] = system: RsuA wild type (Escherichia coli); assay: filter binding; details: 4 mM Mg2+; fit 0-2 uM, bound fraction falls above 2 uM; FRET: 80 mM K-Hepes pH 7.6, 330 mM KCl, 0-20 mM MgCl2, 2 nM RNA folded at 37 C. Filter binding: 80 mM K-Hepes pH 7.6, 50 mM KCl, 4 mM MgCl2, 6 mM …
[2] = system: RsuAΔN (S4-like domain truncation) (Escherichia coli); assay: filter binding; details: 4 mM Mg2+; fit 0-15 uM; FRET: 80 mM K-Hepes pH 7.6, 330 mM KCl, 0-20 mM MgCl2, 2 nM RNA folded at 37 C. Filter binding: 80 mM K-Hepes pH 7.6, 50 mM KCl, 4 mM MgCl2, 6 mM …
[3] = system: RsuA G127C-Cy5 (Escherichia coli); assay: FRET; details: 4 mM Mg2+, FRET: 80 mM K-Hepes pH 7.6, 330 mM KCl, 0-20 mM MgCl2, 2 nM RNA folded at 37 C. Filter binding: 80 mM K-Hepes pH 7.6, 50 mM KCl, 4 mM MgCl2, 6 mM …; for binding signal: scale: fold higher affinity than wild type

For 16S 5'-domain rRNA (filter binding), the Kd [1] was 12 nM and the Kd [2] was 57 nM.
Work on 16S 5'-domain G505C yielded a binding signal [3] greater than 30.
16S 5'-domain C507G gave a binding signal (fold lower Kd than wild type (3.9 nM)) [3] of 390.
16S 5'-domain G505C:G506C showed a binding signal [3] greater than 30.
